Measurements published in US20080124780A1, “Hybrid immobilized catalytic system with controlled permeability” (NORTHEASTERN UNIVERSITY, priority 2002, published 2008).

Conditions: not told; for Permeability Coefficient: pH 7.4
Text: In order to estimate the molecular weight cut-off point of the cross-linked chitosan, a model representing the chitosan layer was developed in which a thin membrane acts as a layer surrounding the alginate core. The permeability coefficients for vitamin B2 (molecular weight 376 daltons) and vitamin B12 (molecular weight 1355 daltons) representing low-molecular weight substrates, and myoglobin (molecular weight 14,000 daltons) representing a high molecular weight substrate, were studied.
Chitosan solution was prepared by dissolving the polymer (750 kDa, 87.6% deacetylation) obtained from Pronova Biopolymers (Raymond, Wash.) in 0.1-M acetic acid to make a 0.75% (w/v) solution. Films were made by pouring 10 ml of the solution into a Petri dish (100×15 mm) and air-drying for up to 48 hours. The resulting films were dipped into a 3.0% (w/v) aqueous sodium tri-polyphosphate (Na-TPP, Sigma Chemical Company, St. Louis, Mo.) solution and kept for 1.5 hours. The cross-linked membranes were washed with distilled water once and stored in PBS at 4° C.
Using a side-by-side diffusion apparatus, the permeability coefficients of vitamin B2, vitamin B12, and myoglobin were determined. Briefly, each apparatus was composed of a donor compartment and a receptor compartment, with a 15-ml capacity. The donor and receptor compartments were separated by the membrane.
The donor compartment was filled with 15 ml of vitamin B2, vitamin B12, or myoglobin solution, and the receptor compartment was filled with 15 ml of phosphate buffered-saline (PBS) pH 7.4. The concentrations of vitamin B2, vitamin B12 and myoglobin were 0.1, 1.0, and 0.1 mg/ml respectively. The receptor compartment was stirred and temperature was controlled in both compartments at 37° C. by a circulating water bath. […] The absorbance values of vitamin B2 at 440 nm, vitamin B12 at 361 nm, and myoglobin at 410 nm were measured using a Shimadzu 160U UV/IV spectrophotometer (Columbia, Md.). The concentration of the diffused compound into the receptor compartment was calculated from calibration curves constructed earlier. […]

Substance | Permeability Coefficient [cm^2/min × 10^6] | permeation through the membrane
vitamin B12 | 7.46 ± 1.47 | 
myoglobin | 0.34 ± 0.89 | permeated at only a low level
